Experimental data: the Human Domainome abundance scans (Beltran et al. 2025)
± gives the uncertainty stated by the source.

B1: POU domain, class 3, transcription factor 1, residues 247 to 324; numbered along this chain, Q03052 (parent)
chain: EDAPSSDDLEQFAKQFKQRRIKLGFTQADVGLALGTLYGNVFSQTTICRFEALQLSFKNMCKLKPLLNKWLEETDSSS

Variants of: B1
Test: abundance fitness (aPCA) (normalised: wild type 0, dead -1); higher = more abundant; growth selection in yeast, the domain comes from the species named
Settings: Homo sapiens

Going from I47M to K58D, the abundance fitness rises from -0.69 ± 0.16 to -0.185 ± 0.21.

Going from K14I to E51T, the abundance fitness falls from -0.19 ± 0.17 to -0.668 ± 0.14.

I47D and S56F are within error of each other in abundance fitness: -1.24 ± 0.39 for the first, -0.719 ± 0.26 for the second.

First: F50S
Second: N68D
The abundance fitness of the first is lower: -0.802 ± 0.11 for the first, -0.071 ± 0.1 for the second.

Going from K64N to P4C, the abundance fitness rises from -0.334 ± 0.35 to 0.126 ± 0.099.

S76G and F50Y are within error of each other in abundance fitness: 0.062 ± 0.043 for the first, -0.089 ± 0.22 for the second.

Going from T36K to C48V, the abundance fitness falls from 0.111 ± 0.071 to -0.151 ± 0.057.

Compared with A28T, S76W is lower in abundance fitness: -0.037 ± 0.076 for the first, -0.495 ± 0.11 for the second.

V41A and S77A are within error of each other in abundance fitness: -0.018 ± 0.048 for the first, 0.065 ± 0.041 for the second.

L23Q and L55F are within error of each other in abundance fitness: -0.31 ± 0.12 for the first, -0.311 ± 0.2 for the second.

A52W and F50G are within error of each other in abundance fitness: -0.728 ± 0.19 for the first, -0.736 ± 0.076 for the second.

K22F and A3V are within error of each other in abundance fitness: -0.32 ± 0.19 for the first, -0.08 ± 0.07 for the second.

First: I47T
Second: F42L
The abundance fitness of the first is lower: -0.883 ± 0.2 for the first, -0.043 ± 0.056 for the second.

Q44K and N68T are within error of each other in abundance fitness: 0.041 ± 0.063 for the first, 0.145 ± 0.059 for the second.

E10R and C48N are within error of each other in abundance fitness: -0.107 ± 0.057 for the first, -0.21 ± 0.17 for the second.

Going from Q44L to E10Y, the abundance fitness rises from -0.502 ± 0.069 to -0.244 ± 0.18.

First: L34K
Second: Q44V
The abundance fitness of the first is lower: -0.698 ± 0.28 for the first, -0.209 ± 0.053 for the second.

G31K and L34F are within error of each other in abundance fitness: -0.702 ± 0.22 for the first, -0.408 ± 0.19 for the second.

Compared with L63E, D7K is higher in abundance fitness: -0.436 ± 0.13 for the first, 0.358 ± 0.14 for the second.

T74A and L32I are within error of each other in abundance fitness: 0.12 ± 0.063 for the first, 0.163 ± 0.089 for the second.

E73P and F25V are within error of each other in abundance fitness: -0.378 ± 0.12 for the first, -0.31 ± 0.086 for the second.

First: C48P
Second: A33D
The abundance fitness of the first is higher: -0.175 ± 0.088 for the first, -0.504 ± 0.16 for the second.

Compared with E72Y, K69P is lower in abundance fitness: -0.19 ± 0.12 for the first, -0.662 ± 0.11 for the second.

First: E72S
Second: G24S
The abundance fitness of the first is higher: -0.212 ± 0.054 for the first, -0.454 ± 0.1 for the second.

R20K and D29P are within error of each other in abundance fitness: -1.11 ± 0.43 for the first, -0.614 ± 0.16 for the second.

L66Y and N68V are within error of each other in abundance fitness: 0.053 ± 0.12 for the first, -0.008 ± 0.053 for the second.

C61W and K69A are within error of each other in abundance fitness: -0.148 ± 0.057 for the first, -0.161 ± 0.048 for the second.

E10K and L63V are within error of each other in abundance fitness: -0.301 ± 0.17 for the first, -0.315 ± 0.062 for the second.

D8F and L71G are within error of each other in abundance fitness: -0.481 ± 0.41 for the first, -0.851 ± 0.11 for the second.

Compared with I21P, K58W is higher in abundance fitness: -1.18 ± 0.3 for the first, -0.303 ± 0.073 for the second.

First: P4G
Second: L71N
The abundance fitness of the first is higher: -0.098 ± 0.052 for the first, -0.341 ± 0.18 for the second.

First: P4M
Second: A13T
The abundance fitness of the first is higher: 0.032 ± 0.081 for the first, -0.691 ± 0.18 for the second.

First: A52P
Second: Q15S
The abundance fitness of the first is lower: -0.929 ± 0.4 for the first, -0.014 ± 0.079 for the second.

I21D and T36P are within error of each other in abundance fitness: -0.527 ± 0.21 for the first, -0.262 ± 0.1 for the second.

Going from L67D to L67S, the abundance fitness falls from -0.167 ± 0.13 to -0.829 ± 0.12.

First: E10G
Second: N59A
The abundance fitness of the first is lower: -0.361 ± 0.072 for the first, 0.08 ± 0.049 for the second.

Compared with L9C, A3M is higher in abundance fitness: -0.606 ± 0.24 for the first, 0.363 ± 0.071 for the second.

W70V and L23E are within error of each other in abundance fitness: -0.58 ± 0.069 for the first, -0.47 ± 0.15 for the second.

L32G and K14F are within error of each other in abundance fitness: -0.372 ± 0.057 for the first, -0.386 ± 0.18 for the second.

Compared with A33K, W70Q is lower in abundance fitness: -0.067 ± 0.089 for the first, -0.881 ± 0.2 for the second.

Going from I21H to D75A, the abundance fitness rises from -0.64 ± 0.29 to -0.015 ± 0.074.

First: K64F
Second: E73R
The abundance fitness of the first is lower: -0.562 ± 0.3 for the first, -0.081 ± 0.038 for the second.

A52I and I21R are within error of each other in abundance fitness: -0.56 ± 0.28 for the first, -0.338 ± 0.061 for the second.

E1V and S5T are within error of each other in abundance fitness: 0.103 ± 0.067 for the first, 0.09 ± 0.081 for the second.

First: Q27P
Second: L9K
The abundance fitness of the first is higher: -0.053 ± 0.082 for the first, -0.399 ± 0.21 for the second.

D75Y and A3D are within error of each other in abundance fitness: 0.151 ± 0.29 for the first, -0.164 ± 0.14 for the second.

Q54R and K62E are within error of each other in abundance fitness: -0.195 ± 0.051 for the first, -0.095 ± 0.074 for the second.

First: T74K
Second: A13W
The abundance fitness of the first is higher: 0.04 ± 0.12 for the first, -0.903 ± 0.27 for the second.

D7C and Q11P are within error of each other in abundance fitness: -0.316 ± 0.15 for the first, -0.299 ± 0.12 for the second.

Compared with W70R, P4K is higher in abundance fitness: -0.679 ± 0.077 for the first, -0.114 ± 0.091 for the second.

R20Q and M60P are within error of each other in abundance fitness: -0.733 ± 0.22 for the first, -1.18 ± 0.42 for the second.

First: F50N
Second: L34M
The abundance fitness of the first is lower: -0.874 ± 0.31 for the first, -0.158 ± 0.15 for the second.

First: Q27I
Second: K64E
The abundance fitness of the first is higher: 0.045 ± 0.13 for the first, -0.564 ± 0.11 for the second.

Going from A3W to L34P, the abundance fitness falls from 0.098 ± 0.062 to -0.772 ± 0.28.

Compared with S6C, Y38L is lower in abundance fitness: 0.398 ± 0.14 for the first, -0.418 ± 0.08 for the second.

E51D and Q15H are within error of each other in abundance fitness: -0.381 ± 0.17 for the first, -0.075 ± 0.14 for the second.

Going from D2Q to C61V, the abundance fitness falls from 0.267 ± 0.15 to 0.045 ± 0.044.

M60V and F16R are within error of each other in abundance fitness: -0.701 ± 0.12 for the first, -0.621 ± 0.084 for the second.

S56Y and K14P are within error of each other in abundance fitness: -0.745 ± 0.23 for the first, -0.573 ± 0.26 for the second.

L67P and F16G are within error of each other in abundance fitness: -0.613 ± 0.13 for the first, -0.572 ± 0.089 for the second.

P4D and E1G are within error of each other in abundance fitness: -0.134 ± 0.12 for the first, -0.031 ± 0.06 for the second.

Compared with Q44D, L9P is lower in abundance fitness: 0.195 ± 0.077 for the first, -0.68 ± 0.24 for the second.

First: E73V
Second: M60R
The abundance fitness of the first is higher: -0.128 ± 0.052 for the first, -0.826 ± 0.1 for the second.

Q18S and N68H are within error of each other in abundance fitness: -0.027 ± 0.072 for the first, 0.108 ± 0.12 for the second.

Going from C61K to F42D, the abundance fitness falls from -0.043 ± 0.095 to -0.295 ± 0.13.

E51Q and G24I are within error of each other in abundance fitness: -0.686 ± 0.23 for the first, -1.02 ± 0.44 for the second.

L9F and F57S are within error of each other in abundance fitness: -0.098 ± 0.13 for the first, -0.152 ± 0.072 for the second.

Compared with V41D, I21Y is higher in abundance fitness: -0.141 ± 0.1 for the first, 0.147 ± 0.17 for the second.

E73H and N40T are within error of each other in abundance fitness: -0.03 ± 0.093 for the first, 0.031 ± 0.067 for the second.

Going from K62G to Q44W, the abundance fitness falls from -0.365 ± 0.06 to -0.55 ± 0.095.

G31Q and C48Y are within error of each other in abundance fitness: -0.337 ± 0.11 for the first, -0.312 ± 0.15 for the second.

F57K and N68I are within error of each other in abundance fitness: 0.005 ± 0.094 for the first, -0.028 ± 0.1 for the second.

Going from L55V to S78R, the abundance fitness rises from -0.45 ± 0.087 to -0.032 ± 0.082.

Q18C and V30P are within error of each other in abundance fitness: -0.428 ± 0.24 for the first, -0.787 ± 0.19 for the second.

N68R and Q44R are within error of each other in abundance fitness: -0.086 ± 0.046 for the first, -0.067 ± 0.044 for the second.

First: L34W
Second: T74M
The abundance fitness of the first is lower: -0.914 ± 0.2 for the first, -0.062 ± 0.095 for the second.

P4H and K69R are within error of each other in abundance fitness: 0.002 ± 0.22 for the first, -0.058 ± 0.041 for the second.

L63F and T46S are within error of each other in abundance fitness: -0.148 ± 0.12 for the first, -0.191 ± 0.079 for the second.

S5D and F57Y are within error of each other in abundance fitness: 0.388 ± 0.087 for the first, 0.37 ± 0.17 for the second.

D8E and K17T are within error of each other in abundance fitness: -0.076 ± 0.085 for the first, -0.001 ± 0.1 for the second.

T45P and L55G are within error of each other in abundance fitness: -0.434 ± 0.12 for the first, -0.514 ± 0.059 for the second.

K17C and L71S are within error of each other in abundance fitness: -0.868 ± 0.34 for the first, -0.706 ± 0.13 for the second.

M60W and L9G are within error of each other in abundance fitness: -0.826 ± 0.14 for the first, -0.651 ± 0.11 for the second.

P65C showed an abundance fitness of -0.139 ± 0.099.
